In the DeepSol protein solubility set:

assay: soluble on expression in E. coli; label from the status in PepcDB or PDB records

| Sequence | soluble on expression in E. coli |
| --- | --- |
| MGSDKIHHHHHHMNILFVAPYTPSPIRVRPYQFIRHLARRGHTITLVCVADNEAALAELRTICRRVVAVPTRTGDHVLAYIRALPTRLPLQAAHCLTPAMITAVTREIQSGDHDVIHIEHLRAAEIGLAALHQSGGGLPVVLDAVDSISLLFERTFRRSSSLSGRLRALIDLARTRHYEATYPHRFAAVVVTSPEDRWALMTLNQTLSHPGHNPLVVAPNGVDLEYFQPHTGPRHPASLVFTGKMSYHANEAAARYLVEAIMPRVWAVRPEVTVTLAGAEPGAHIRAYAHDPRITVTGAVPDLRPYLTQATIAVAPIRYGVGVQNKVLEAMATATPVITARQATVALSVQPGHDLIVADDAAEFAQAILNLLADPERRDRLGQAGRMYVERHHHWQQSVTCLESVYRAVTTPVYTH | not soluble |
| MEKREFPVSDRIFPEVSIPYGDKSTKAMQITCACCGAVAYFPHQTGVNRKPPIAATQHFQNKGWVVGGNPRKDFCPIHAAPAKRKGQKAMVDTVATIADKPREMSREDRRIINDKLDEVYAKDAYKSPWTDSAVAKDLGVPRDWVAQVRDQFFGPAGSNPLYDEFLKETKLVEGAFLACEEATARAEKAAADQRRAHGDLCKAMDSYRVLARKVEREISR | not soluble |
| MSLSGPRNQILVSITDAPKIHILDPSTEYCVGDYVAYQLNGVAPFMIKYEFNGIPLKSKERSSQFVRLASEPGIISITSLQDSSSQCIVDFTNPKLKSEFDDLSLNIHPIPSVTVSQGNYVTEDIREGDQAEVIFSFEGTPPFSLTYVRTEETDGKHGKRRSQVVETHKVTDIYSHEYKVITSLQGTYEAIEITDAYCFAKNDLFFNNEGHHHHHH | soluble |
| MWNETWNEITNELIQLSREPESEIPRITAEQRAYLKLVRPAAFVEGIAVLRVPHSRAKETIETHLGQAITSVLSRRMGRPFTVAVTVDPTLDVIQDLPHDVPEQHIVQHHVPEHPHYSPVSQGYPPHYAPEQSEYNTEYSDEYPSGWATYHVQTPQPSQSSQSAQQQPAQRMPDRRRYA | not soluble |
| MGSDKIHHHHHHMLYNTDFLSRLTQGVKYLSSAWGLSSEAKLTLLTISENATFRIADENSGRNLIVRVHRPDYHTEAEILSELAWIDALRQDGVVVTPRPISANDGSLLQIFSDGETMRHAVAFEYMAGKEPDAESDLVHWYRTLGEINAKLHAHSRRWTRPENFIRKTWNFNRILGNGAYWGDWRDALGLKPDGKSVLERTHALLETQTSAYGYGEERFGLVHCDMRAANLLVDGDRLGVIDFDDCGLSWFAYDFAAAISFMEHEPFIPDLMAAWLEGYRRVAPLDAQHEAALPMFIMLRRMQLTAWIASHAETPTAQSMGTAYTDGTVALAECYLAEHR | not soluble |
| MNFDEIDKTFGTKNRDQGYDLLKARLDKGDRSVEVLWRLAQVIHEKSACVPKAQRKASVTEGLKFAEEAVQKDPNHFKALKWNAVLTGQATEYMATKEKLECSKKFKELLDKTLAKEPKDTAVLHLRGRYKYSVASLTWLEKKLAATFYQQPPSHSYEEANEDFLAAYKVNPKWMENTFYVSKCYVAIKDKANARKYLTEVCDIEPYSDAEQEFADDAKQMLSKL | soluble |
| MGSDKIHHHHHHMHHVVGVRFKKAGKIYYFSPGDLDIPRGESVIVETSRGVEYGNVVIEKKTVGDNDVVLPLKQVIRVATEKDKLAVQENKEAAKKAYDVCVQKIMEHQLDMKLVDVEYTFDRNKVLFYFTADGRIDFRELVKDLASVFRTRIELRQIGVRDEAKMLGGIGPCGRILCCSSFLGDFEPVSIKMAKDQNLSLNPAKISGLCGRLMCCLKYENDMYESAKQELPDLGETIDTPHGKGKVVGLNMLERLVQVHLFEGERVLEFSLEELLERGAVSAEATE | not soluble |
| MPGSLPPNGESSWPKDVGIVALEIYFPSQYVDQEELEKFDGVSAGKYTIGLGQSKMGFCSDREDINSLCLTAVQRLMERNNLSYDCIGRLEVGTETIIDKSKSVKTVLMQLFEESGNTDVEGIDTTNACYGGTAALFNAVNWVESSSWDGRYALVVAGDIAVYATGSARPTGGAGAVAMLVGPNATLVFERGLRGTHMQHAYDFYKPDMESEYPVVDGKLSIQCYLSALDHCYSTYRKKIHAQWQKEGTEKPFTLNDFGFMIFHSPYCKLVQKSFARLLVNDFISDSNPNTESGVYVGLDSFRDLKLEETYFDRDVEKAFLKASTELFNEKTKTSLLVSKENGNMYTPSVYGCLASVLAQYSPQQLAGQRIGVFSYGSGFAATLYSLRVSQDAMPGSSLDKLTSSLSDLKARLDSRKNVSPSIFADNMKLREDTHHLANYVPQGSVDDLFPGTWYLVRVDEKHRRFYARSSLMRDGPLDAAPESVHSSTANEHFPSPAKKVPRIPPAAEAEPISVTNGGH | soluble |
| MGSDKIHHHHHHMSDADPKVPHRGHELLDVLARLGGSARNAQIAQVMDVSEETVRRLVKTLAKQGKVERVHGGTYLRGSQDAPMYSGALEQQPKEKTRIAKGVLELIRDGMTLFINVGSTTTYVAEQLRERRDLTIVTNSISTVASLADHNGSRVFLAGGEVSRSERGCFGRATEDFARRFAYDVLVIGADAMSPELGVLAANPREAELTRALLGNATRVIVAADYRKFSAIAPCIAAPLEAITDLVTDAAPPDALQDALDRCGVATHLAAKSGRITTRTPPPQDVGHSNTNRKTLSFPTEVS | not soluble |
| MSLHEFQTDSKNKHKVDVHIGIYAPFSSHSAFIGRNILAAMEMGSERLQSSDIHYSFYTLDQLPKNKNAGLVLQKFIDTHHINVLVTGGKETGLIAAPIAKKNNLIHFSLTNNTEVADGRNNFIVWSPAYDQAKVLVNELKRQQVHHLGIITANQPSSTALTHSVIKQLQSDSHIDVAASEYFEPGNKDFSRLTNRIKRKNADMYLVMASPEDIKLIQEQMEADKQHVPITSIVERATPEVVKVFEGQWYVDSHEMQPDFINEFKQNYLNYPVTEAGYAFDLFQLLNKSIVMAIRTQGSPTTSQEVVHQLHDIANGTGVMGTMVLDSKGSLFTKSEVKTVKNGEIHTVEGHHHHHH | soluble |
| MGSDKIHHHHHHMPEHLDFTLFQPKGRLASIVQGVWSTSVAIHSSNNIKRWLHSDACSGFLFNLSEPIQLNDLSISTGGVLLPVSKQAQTITLPPGAVVVGVRFHPAMSFAILGNIYQQATQIKKSETNILSLQTLGNQLEQAKGHYARIVVFYRWLNTMLLTIDNIPAPLMSALKALEDKKSPGELSNHVLLSQRQIERHFQKWLNMTPKYYQRISRVKNALKVLKLHPETALADLALSIGFTDQAHMTREFKYIARITPKHYAQKVIDDKSNALSIIKPKVG | not soluble |
| MNQLQAEINAANAVFPVSDSTKIPKVSQKLFGLLGDGFFPQLHPKGLKIADNIAALFDQYNLKSIALKNFDLNLERKNDIVIQGKVCYSFSIK | not soluble |
| MPPAKTKPKFPLCRLPSESVTNVLKIMKLSEIFNLSETSLKARSIVELAMQTIPSHLDLQGFPSKNYKLTVENDGQKVQVQFPHATDALTNFKQKLFRICKTFQIKTASVYFSCPVEAHIIELLGFIKKRKVQFQDFSIKGSVTEQNFKFFMTIGAQRFHLDMSETQPVTEVFALLKIQEVVLQNAAISSQMLNKVLKAWKTTSRLKKFRVIKNWKMDTSVVFQGLHVKQKSRSDTKKEYEIDLDGGGKATCCFKFEKGSSTNGFEFIVIN | not soluble |
| MSLTLFGKTSRRPGLPRQAAGLALAACALASLPAQAKESDGDRLQGIVEPIVARQPLKLGVTVVHLLDNFYKGIAYGIVDEARRSNVEVVQVAVAGAYGNVQQQFAQLQSFKTLGVDYAVLSPAAYSGYDPVVADLARSGIKTISAGIPVNSDKIAFGVLQDDTLIGKVLGKALCDDGAQGKQVIVVPGAAGLEWPRLRYEGFKEVASACGAKLTPAAFRGEMSLADGMAQTQDLLMRTPDAEYVFTPVTFLGIGAVRAARQANRPVKVLTSAMVKENEAMIREGRLLAVASEPGVIMGRLIVQYAIREHEGLPMPPLDKPTRSVPYPHFNVPITVVDKSNEGHHHHHH | soluble |
